In patent US20250262210A1 (TRUSTEES OF COLUMBIA UNIVERSITY IN THE CITY OF NEW YORK, published 2025):

Target: T1, SEC24D (human, UniProt O94855 1-1032, limits assumed)
T1 sequence (looked up): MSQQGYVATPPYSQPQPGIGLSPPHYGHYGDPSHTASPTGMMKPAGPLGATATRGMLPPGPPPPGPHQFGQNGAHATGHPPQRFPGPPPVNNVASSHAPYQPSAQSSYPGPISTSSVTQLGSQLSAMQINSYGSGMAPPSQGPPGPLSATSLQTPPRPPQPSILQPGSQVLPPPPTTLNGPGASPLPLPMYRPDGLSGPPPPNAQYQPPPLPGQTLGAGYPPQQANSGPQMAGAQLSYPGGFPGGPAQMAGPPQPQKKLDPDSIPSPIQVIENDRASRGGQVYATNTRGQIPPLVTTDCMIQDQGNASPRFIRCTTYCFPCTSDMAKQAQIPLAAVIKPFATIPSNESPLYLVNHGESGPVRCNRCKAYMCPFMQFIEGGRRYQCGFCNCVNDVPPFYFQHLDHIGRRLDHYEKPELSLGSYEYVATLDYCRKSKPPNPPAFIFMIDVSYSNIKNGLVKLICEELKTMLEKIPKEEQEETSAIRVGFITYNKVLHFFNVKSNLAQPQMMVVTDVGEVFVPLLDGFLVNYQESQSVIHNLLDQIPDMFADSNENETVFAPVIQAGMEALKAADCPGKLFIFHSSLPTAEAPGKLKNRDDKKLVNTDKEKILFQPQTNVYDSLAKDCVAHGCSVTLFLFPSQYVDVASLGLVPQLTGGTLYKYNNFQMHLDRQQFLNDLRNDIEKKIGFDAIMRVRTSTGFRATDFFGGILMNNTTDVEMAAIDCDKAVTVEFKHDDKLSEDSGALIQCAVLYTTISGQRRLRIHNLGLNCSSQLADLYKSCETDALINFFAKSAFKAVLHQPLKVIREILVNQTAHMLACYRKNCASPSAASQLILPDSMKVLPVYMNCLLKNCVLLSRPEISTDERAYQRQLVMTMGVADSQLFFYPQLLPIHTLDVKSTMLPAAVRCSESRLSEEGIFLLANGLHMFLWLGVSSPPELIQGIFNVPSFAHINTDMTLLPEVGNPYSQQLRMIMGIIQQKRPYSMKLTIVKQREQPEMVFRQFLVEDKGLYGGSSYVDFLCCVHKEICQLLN
Assay: IP/MS, LZTR1 wild type-FLAG, U87
How it was run: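 Read-out: spectral counts from LC-MS/MS (Orbitrap Fusion) after MaxQuant identification. Variable modifications were Met oxidation, protein N-terminal acetylation and N/Q deamidation.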

binding result: binds
B1: LZTR1-FLAG (other, human, UniProt Q8N653 1-840, looked up)
chain: MAGPGSTGGQIGAAALAGGARSKVAPSVDFDHSCSDSVEYLTLNFGPFETVHRWRRLPPCDEFVGARRSKHTVVAYKDAIYVFGGDNGKTMLNDLLRFDVKDCSWCRAFTTGTPPAPRYHHSAVVYGSSMFVFGGYTGDIYSNSNLKNKNDLFEYKFATGQWTEWKIEGRLPVARSAHGATVYSDKLWIFAGYDGNARLNDMWTIGLQDRELTCWEEVAQSGEIPPSCCNFPVAVCRDKMFVFSGQSGAKITNNLFQFEFKDKTWTRIPTEHLLRGSPPPPQRRYGHTMVAFDRHLYVFGGAADNTLPNELHCYDVDFQTWEVVQPSSDSEVGGAEVPERACASEEVPTLTYEERVGFKKSRDVFGLDFGTTSAKQPTQPASELPSGRLFHAAAVISDAMYIFGGTVDNNIRSGEMYRFQFSCYPKCTLHEDYGRLWESRQFCDVEFVLGEKEECVQGHVAIVTARSRWLRRKITQARERLAQKLEQEAAPVPREAPGVAAGGARPPLLHVAIREAEARPFEVLMQFLYTDKIKYPRKGHVEDVLLIMDVYKLALSFQLCRLEQLCRQYIEASVDLQNVLVVCESAARLQLSQLKEHCLNFVVKESHFNQVIMMKEFERLSSPLIVEIVRRKQQPPPRTPLDQPVDIGTSLIQDMKAYLEGAGAEFCDITLLLDGHPRPAHKAILAARSSYFEAMFRSFMPEDGQVNISIGEMVPSRQAFESMLRYIYYGEVNMPPEDSLYLFAAPYYYGFYNNRLQAYCKQNLEMNVTVQNVLQILEAADKTQALDMKRHCLHIIVHQFTKVSKLPTLRSLSQQLLLDIIDSLASHISDKQCAELGADI
notes: Expressed in HEK 293T, HeLa or U87 cells; used as cell lysate; also called LZTR1 wild type-FLAG; LZTR1 WT; not shown: FLAG tag at the C-terminus
